Data as given in publication PMC1310897.

Columns and labels:
Test in all cases: fluorescence polarization
RecQ WT = RecQ WT (Escherichia coli, UniProt P15043 1-609)
RecQ W154L = RecQ W154L (Escherichia coli, UniProt P15043 1-609, W154L)
RecQ F158L = RecQ F158L (Escherichia coli, UniProt P15043 1-609, F158L)
RecQ R159L = RecQ R159L (Escherichia coli, UniProt P15043 1-609, R159L)

Measured: binding result

B1: oligo 1 ssDNA (30 nt) (ssDNA)
DNA: GCGTGGGTAATTGTGCTTCAATGGACTGAC
binds: all assays above
